Experimental findings from article PMC9482650, “Quantitative fragmentomics allow affinity mapping of interactomes” (Nature Communications, 2022) are described below.

Experiment in all cases: holdup assay
Parameters in all cases: key: below the threshold = too weak to quantify, mostly under pKd 3.1 to 4

Assay [1] addresses T1, DVL3, Q92997.
T1 sequence (Q92997 244-331, limits assumed, looked up): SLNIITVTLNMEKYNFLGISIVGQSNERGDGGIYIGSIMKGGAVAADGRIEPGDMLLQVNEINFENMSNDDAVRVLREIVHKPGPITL

In assay [2] the target is DLG1_2, Q12959.
DLG1_2, Q12959, sequence (Q12959 314-412): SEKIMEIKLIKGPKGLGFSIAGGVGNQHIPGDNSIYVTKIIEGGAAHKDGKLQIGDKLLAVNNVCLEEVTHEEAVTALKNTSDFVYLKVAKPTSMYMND
The target in assay [3] is GOPC, Q9HD26.
Assay [4] has as its target SCRIB_3, Q14160.
Assay [5] concerns the target T2, APBA1_1, Q02410.
T2 sequence (Q02410 651-752, limits assumed, looked up): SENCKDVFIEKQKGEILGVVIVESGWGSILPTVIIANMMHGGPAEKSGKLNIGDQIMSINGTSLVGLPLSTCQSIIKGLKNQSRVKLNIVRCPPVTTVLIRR
To be noted: plain residues with an end cap or a label only (N-terminal biotin on a linker: ttds).

Assay [6] has as its target IL16_4, Q14005.
In assay [7] the target is DLG5_1, Q8TDM6.
DLG5_1, Q8TDM6, sequence (Q8TDM6 617-713): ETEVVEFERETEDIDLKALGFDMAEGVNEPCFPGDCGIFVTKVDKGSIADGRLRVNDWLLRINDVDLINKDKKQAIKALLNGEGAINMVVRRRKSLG
The target in assay [8] is T3, MPDZ_12, O75970.
T3 sequence (O75970 1857-1958, limits assumed, looked up): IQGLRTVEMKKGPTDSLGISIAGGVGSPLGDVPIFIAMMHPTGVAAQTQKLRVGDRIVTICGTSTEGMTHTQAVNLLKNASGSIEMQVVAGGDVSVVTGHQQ

For assay [9], the target named is GIPC2, Q8TF65.
GIPC2, Q8TF65, sequence (Q8TF65 112-203): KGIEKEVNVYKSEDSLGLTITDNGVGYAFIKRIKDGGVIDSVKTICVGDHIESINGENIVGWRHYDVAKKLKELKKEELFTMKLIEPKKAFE
The target of assay [10] is T4, DLG3_2, Q92796.
T4 sequence (Q92796 221-321, limits assumed, looked up): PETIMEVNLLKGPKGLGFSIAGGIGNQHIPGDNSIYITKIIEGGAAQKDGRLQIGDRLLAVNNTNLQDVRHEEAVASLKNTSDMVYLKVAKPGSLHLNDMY
To be noted: plain residues with an end cap or a label only (N-terminal biotin on a linker: ttds).

For assay [11], the target named is SCRIB_1, Q14160.
SCRIB_1, Q14160, sequence (Q14160 718-814): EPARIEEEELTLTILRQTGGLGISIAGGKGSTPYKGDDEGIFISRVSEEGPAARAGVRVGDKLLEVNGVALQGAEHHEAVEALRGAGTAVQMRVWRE
For assay [12], the target named is T5, SNTA1, Q13424.
T5 sequence (Q13424 82-180, limits assumed, looked up): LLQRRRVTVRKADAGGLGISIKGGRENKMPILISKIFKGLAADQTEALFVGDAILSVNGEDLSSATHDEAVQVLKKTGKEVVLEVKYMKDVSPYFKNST
To be noted: plain residues with an end cap or a label only (N-terminal biotin on a linker: ttds).

The target in assay [13] is Inadl_9, Q8NI35. To be noted: plain residues with an end cap or a label only (N-terminal biotin on a linker: ttds).
Inadl_9, Q8NI35, sequence (Q8NI35 1530-1615): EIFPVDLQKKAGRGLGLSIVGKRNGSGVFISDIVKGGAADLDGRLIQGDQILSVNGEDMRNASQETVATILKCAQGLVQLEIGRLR
Assay [14] has as its target Inadl_4, Q8NI35. The settings on record: plain residues with an end cap or a label only (N-terminal biotin on a linker: ttds).
Assay [15] concerns the target FRMPD2_1, Q68DX3.
In assay [16] the target is T6, CARD11, Q9BXL7.
T6 sequence (Q9BXL7 662-765, limits assumed, looked up): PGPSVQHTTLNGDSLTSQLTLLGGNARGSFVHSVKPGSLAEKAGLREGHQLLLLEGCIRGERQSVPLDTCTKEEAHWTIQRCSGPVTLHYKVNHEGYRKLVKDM
To be noted: plain residues with an end cap or a label only (N-terminal biotin on a linker: ttds).

For assay [17], the target named is T7, GRIP1_5, Q9Y3R0.
T7 sequence (Q9Y3R0 568-668, limits assumed, looked up): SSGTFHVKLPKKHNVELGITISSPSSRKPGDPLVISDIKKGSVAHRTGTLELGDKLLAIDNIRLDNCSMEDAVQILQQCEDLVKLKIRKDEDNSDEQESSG

The target of assay [18] is T8, LIN7B, Q9HAP6.
T8 sequence (Q9HAP6 88-185, limits assumed, looked up): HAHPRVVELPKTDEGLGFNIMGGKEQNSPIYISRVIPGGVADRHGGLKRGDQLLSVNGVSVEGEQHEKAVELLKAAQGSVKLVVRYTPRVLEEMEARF
To be noted: plain residues with an end cap or a label only (N-terminal biotin on a linker: ttds).

Assay [19] has as its target NHERF4_4, Q86UT5.
In assay [20] the target is MAGI2_3, Q86UL8.
MAGI2_3, Q86UL8, sequence (Q86UL8 600-682): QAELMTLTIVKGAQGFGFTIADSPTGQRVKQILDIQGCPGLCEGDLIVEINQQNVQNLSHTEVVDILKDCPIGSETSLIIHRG
For assay [21], the target named is T9, PDZD2_2, O15018.
T9 sequence (O15018 329-429, limits assumed, looked up): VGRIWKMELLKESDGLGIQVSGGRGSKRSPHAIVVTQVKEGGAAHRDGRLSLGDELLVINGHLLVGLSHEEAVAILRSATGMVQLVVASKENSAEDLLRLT

In assay [22] the target is FRMPD2_2, Q68DX3.
FRMPD2_2, Q68DX3, sequence (Q68DX3 944-1038): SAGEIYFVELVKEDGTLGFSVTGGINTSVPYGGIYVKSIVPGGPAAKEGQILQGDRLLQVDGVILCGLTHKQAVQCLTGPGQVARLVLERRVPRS
The target of assay [23] is T10, FRMPD1, Q5SYB0.
T10 sequence (Q5SYB0 52-145, limits assumed, looked up): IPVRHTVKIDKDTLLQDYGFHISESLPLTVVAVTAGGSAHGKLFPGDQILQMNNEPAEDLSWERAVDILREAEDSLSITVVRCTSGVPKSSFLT

The target of assay [24] is T11, APBA1_2, Q02410.
T11 sequence (Q02410 742-832, limits assumed, looked up): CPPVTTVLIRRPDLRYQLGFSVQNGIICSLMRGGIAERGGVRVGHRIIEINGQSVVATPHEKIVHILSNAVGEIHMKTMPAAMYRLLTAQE

The target in assay [25] is MAGI2_5, Q86UL8.
MAGI2_5, Q86UL8, sequence (Q86UL8 915-1017): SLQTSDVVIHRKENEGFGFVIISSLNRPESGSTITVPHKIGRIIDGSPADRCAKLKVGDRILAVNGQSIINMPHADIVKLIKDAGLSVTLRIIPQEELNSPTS
Assay [26] deals with LNX1_2, Q8TBB1. To be noted: plain residues with an end cap or a label only (N-terminal biotin on a linker: ttds).
LNX1_2, Q8TBB1, sequence (Q8TBB1 371-470): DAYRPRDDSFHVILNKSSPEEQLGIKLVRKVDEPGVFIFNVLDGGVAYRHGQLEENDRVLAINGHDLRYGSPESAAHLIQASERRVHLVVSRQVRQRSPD
In assay [27] the target is DLG4_2, P78352.
DLG4_2, P78352, sequence (P78352 155-259): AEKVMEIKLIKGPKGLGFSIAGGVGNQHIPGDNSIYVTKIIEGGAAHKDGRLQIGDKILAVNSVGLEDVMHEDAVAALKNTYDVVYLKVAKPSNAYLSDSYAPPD
[28] abbreviates: plain residues with an end cap or a label only (N-terminal biotin on a linker: ttds).
The mark [29] stands for this setting: plain residues with an end cap or a label only (N-terminal biotin on a linker: ado-ado).

FRMPD2_1, Q68DX3, sequence (Q68DX3 770-861): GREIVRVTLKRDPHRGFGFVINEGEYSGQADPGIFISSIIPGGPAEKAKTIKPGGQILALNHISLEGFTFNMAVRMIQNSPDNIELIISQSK
NHERF4_4, Q86UT5, sequence (Q86UT5 464-550): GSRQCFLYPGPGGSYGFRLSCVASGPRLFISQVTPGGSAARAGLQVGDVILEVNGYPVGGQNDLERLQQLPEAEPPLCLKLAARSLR
IL16_4, Q14005, sequence (Q14005 1229-1329): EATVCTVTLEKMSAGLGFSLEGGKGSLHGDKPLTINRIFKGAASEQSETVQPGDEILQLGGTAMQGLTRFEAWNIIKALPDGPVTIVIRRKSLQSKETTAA
Inadl_4, Q8NI35, sequence (Q8NI35 547-651): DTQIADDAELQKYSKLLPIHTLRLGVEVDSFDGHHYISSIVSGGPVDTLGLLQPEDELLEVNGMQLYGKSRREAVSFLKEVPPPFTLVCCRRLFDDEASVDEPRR
SCRIB_3, Q14160, sequence (Q14160 999-1103): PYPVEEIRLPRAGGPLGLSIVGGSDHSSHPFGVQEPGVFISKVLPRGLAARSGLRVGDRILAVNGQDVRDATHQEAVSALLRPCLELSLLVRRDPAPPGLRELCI

With RSLEEEESQL [GRASP, Q7Z6J2], the pKd – broadly, −log10 of the Kd, conventionally taken in molar units – in [1] (setting [28]) is 3.96; in [2] (setting [28]) it was “below the threshold”; in [3] (setting [28]), 4.01; in [4] (setting [28]), 4.23; in assay [5], “below the threshold”; in assay [6] (setting [28]) it was 3.54. The pKd entry in assay [7] (setting [28]) is “below the threshold”; in assay [8] (setting [28]), “below the threshold”; in assay [9] (setting [28]), 4.17; in assay [10], 3.63; in assay [11] (setting [28]), 3.55; in assay [12], “below the threshold”. Besides, the pKd result in assay [13] is “below the threshold”; in assay [14], 3.83; in [15] (setting [28]) it was “below the threshold”; in assay [16], 3.81; in [17] (setting [28]) it was 3.87; in assay [18] it was 3.7. Moreover, the pKd entry was “below the threshold” in [19] (setting [28]); 3.65 in [20] (setting [28]); 3.98 in assay [21] (setting [28]); “below the threshold” in [22] (setting [28]); 3.71 in assay [23] (setting [28]); 3.65 in [24] (setting [28]). In addition, the figures for the pKd in assay [25] (setting [28]), in assay [26] and in assay [27] (setting [28]) were 4.42, 3.56 and 3.84, respectively.
On to SSRTRRETQL [HPV16-E6, P03126], for which the pKd entry is “below the threshold” in [1] (setting [28]); 5.06 in assay [2] (setting [28]); 5.29 in assay [4] (setting [28]); “below the threshold” in assay [5]; “below the threshold” in [6] (setting [28]); “below the threshold” in assay [7] (setting [28]). Besides, the pKd entry in assay [8] (setting [28]) was “below the threshold”; in assay [9] (setting [28]), “below the threshold”; in assay [10] it was 4.8; in assay [11] (setting [28]) it was 5.42; in [12], 4.75; in assay [13] it was “below the threshold”. The pKd entry in [14] is “below the threshold”; in assay [15] (setting [28]) it was 4.12; in assay [16] it was “below the threshold”; in [17] (setting [28]), “below the threshold”; in [18] it was 3.91; in [19] (setting [28]), 3.61. Moreover, the pKd in [20] (setting [28]) is 3.67; in assay [21] (setting [28]), “below the threshold”; in [22] (setting [28]), “below the threshold”; in assay [23] (setting [28]) it was “below the threshold”; in assay [24] (setting [28]), “below the threshold”; in assay [25] (setting [28]), 3.93. The pKd in assay [26] stood at 3.47; in assay [27] (setting [28]), 4.66.
KSRVAFFEEL [NF2, P35240]: the pKd in assay [1] (setting [29]) was 3.49; in assay [2] (setting [29]), 3.5; in assay [3] (setting [29]), 3.63; in assay [4] (setting [29]), 3.7; in assay [6] (setting [29]), 3.68; in assay [9] (setting [29]), 3.48. Also, the pKd amounted to 3.64 in assay [11] (setting [29]); 3.62 in assay [17] (setting [29]); 3.55 in assay [20] (setting [29]); 3.71 in assay [21] (setting [29]); 3.75 in [24] (setting [29]); 3.78 in assay [27] (setting [29]).
As to KRPEMTSSSV [MUC3B, MUC3A, Q02505;Q9H195], the pKd is 4.06 in assay [2] (setting [29]); 3.96 in [3] (setting [29]); “below the threshold” in assay [7] (setting [29]); “below the threshold” in assay [8] (setting [29]); “below the threshold” in assay [11] (setting [29]); “below the threshold” in [15] (setting [29]). The pKd result is “below the threshold” in assay [19] (setting [29]); “below the threshold” in assay [20] (setting [29]); 5.11 in [21] (setting [29]); “below the threshold” in [22] (setting [29]); “below the threshold” in [23] (setting [29]); 3.82 in assay [25] (setting [29]).
SVWLRKETRV [CYSLTR2, Q9NS75]: the pKd entry in assay [1] (setting [28]) was “below the threshold”; in assay [2] (setting [28]), 5.78; in [3] (setting [28]) it was 4.27; in assay [4] (setting [28]), 4.85; in [5], “below the threshold”; in assay [6] (setting [28]) it was “below the threshold”. Moreover, the pKd entry is “below the threshold” in assay [7] (setting [28]); “below the threshold” in assay [8] (setting [28]); “below the threshold” in assay [9] (setting [28]); 5.32 in [10]; 4.28 in [11] (setting [28]); 5.41 in assay [12]. Moreover, the negative-log Kd (pKd) is 3.39 in assay [13]; “below the threshold” in [14]; 4.15 in assay [15] (setting [28]); “below the threshold” in assay [16]; “below the threshold” in assay [17] (setting [28]); 4.35 in assay [18]. For the same molecule, the pKd entry is “below the threshold” in assay [19] (setting [28]); 4.73 in [20] (setting [28]); 3.8 in assay [21] (setting [28]); 3.6 in assay [22] (setting [28]); “below the threshold” in assay [23] (setting [28]); 3.84 in assay [24] (setting [28]). Also, the pKd in assay [25] (setting [28]) turned out to be 3.93; in [26] it was 3.4; in [27] (setting [28]), 5.38.
